From patent US20230295310A1 (ABCELLERA BIOLOGICS, published 2023)

B1: mAb 301 (antibody, V domains shown)
VH: EVQLLESGGGLVQPGGSRRLSCAASGFTFSSYAMSWVRQAPGKGLEWVSVISGRGDNTNYADSVKGRFTISRENSKNMLYLQMNSLRAEDTAVYYCAKKYSYYYYYMDVWGKGTTVTVSS
VL: SYELTQPLSVSVALGQTARITCGGNNIGSKDVHWYQQKPGQAPVLVIYRDSNRPSGIPERFSGSNSGNTATLTISRAQAGDEADYYCQVWDSRTAVFGGGTQLTAL
notes: VH and VL only
B2: mAb 306 (antibody, V domains shown)
VH: EVQLLESGGGLVQPGGSLRLSCAASGFTFNSYAMSWVRQAPGRGLEWVSAISGRKSTTYYADSVKGRFTISRDNSKNTLYLQMNSLRAEDTAVYYCAKLWNYYYYYMDVWGKGTTVTVSS
VL: SYELTQPLSVSVALGQTARITCGGNNIGSKDVHWYQQKPGQAPVLVIYRDSNRPSGIPERFSGSNSGNTATLTISRAQAGDEADYYCQVWDSSTAVFGGGTQLTAL
notes: VH and VL only
B3: mAb 318 (antibody, V domains shown)
VH: EGQLLESGGGLVQPGGSLRLSCAASGFTFSRYAMSWIRQAPGKGLEWVSVIDGSGGDKNYADSVKGRFTISRDNSKNSLYLLMNGLRVEDTAIYFCAKKFSYYYYYMDVWGKGTSVTVSS
VL: SYELTQPLSVSVALGQTARITCGGNNIGGKDVHWYQQKPGQAPVLVIYRDSNRPSGIPERFSGSNSGNTATLTISRAQAGDEADYYCQVWDSRTAVFGGGTQLTAL
notes: VH and VL only
B4: mAb 316 (antibody, V domains shown)
VH: EVQLLESGGGLVQPGGSRRLSCAASGFTFRTYAMSWVRQAPGKGLEWVSVINGRGDDTNYADSVKGRFTISRDNSKNILFLQMNSLRAEDTAVYYCAKKYSYYYYYMDVWGKGTTVTVSS
VL: SYELTQPLSVSVALGQTARITCGGNNIGSKDVHWYQQKPGQAPVLVIYRDSNRPSGIPERFSGSNSGNTATLTISRAQAGDEADYYCQVWDSRTAVFGGGTQLTAL
notes: VH and VL only
B5: mAb 304 (antibody, V domains shown)
VH: EVQLLESGGGLVQPGGSRRLSCAASGFTFSSYAMSWVRQAPGKGLEWVSVISGRGDNTNYADSVKGRFTISRENSKNILYLQMNSLRAEDTAVYYCAKKYSYYYYYMDVWGKGTTVTVSS
VL: SYELTQPLSVSVALGQTARITCGGNNIGSKDVHWYQQKPGQAPVLVIYRDSNRPSGIPERFSGSNSGNTATLTISRAQAGDEADYYCQVWDSRTAVFGGGTQLTAL
notes: VH and VL only
B6: mAb 77 (antibody, V domains shown)
VH: EVQLVESGGGLVQPGGSLRLSCAASGFTFSNYWMSWVRQAPGKGLEWVANIKQDGSEKYYVDSVRGRFTISRDNAKKSLYLQMNSLRAEDTAVYYCARDNSNYAYWYFDIWGRGTLVTVSS
VL: DIQMTQSPSTLSVSVGDRVTITCRASQSIRKWLAWYQQKPGKAPKLLIFKASSLESGVPSRFSGSGSGTEFTLTISSLQPDDFATYYCQQYDTYSRTFGQGTKVEIK
notes: VH and VL only
B7: mAb 286 (antibody, V domains shown)
VH: EVKLVESGGGVVRPGGSLRLSCAASGFTFDDYGMSWVRQAPGKGLEWVSGISWNGGSTGYADSVKGRFTISRDNAKNSLYLQMNSLRAEDTALYHCARDGVPVVKRRYYYYYMDVWGKGTTVTVSS
VL: EIVLTQSPDFQSVTPKEKVTITCRASQSIGSSLHWYQQKPDQSPKLLIKYASQSFSGVPSRFSGRGSGTDFTLTINSLEAEDAATYYCHQSGSLPQTFGQGTKVEIK
notes: VH and VL only
B8: mAb 290 (antibody, V domains shown)
VH: EVQLVESGGGVVRPGGSLRLSCAASGFTFDDYGMSWVRQAPGKGLEWVSGISWNGGSTGYADSVKGRFTISRDNAKNSLYLQMNSLRAEDTALYHCARDGVPVVKRRYYYYYMDVWGKGTTVTVSS
VL: EIVLTQSPDFQSVTPKEKITITCRASQSIGSSLHWYQQKPDQSPKLLIKYASQSFSGVPSRFSGSGSGTDFTLTINSLEAEDAATYYCHQSASLPQTFGQGTKVEIK
notes: VH and VL only
B9: mAb 109 (antibody, V domains shown)
VH: QVQLVESGGGVVQPGRSLRLSCVASGFPFRSYGMHWVRQAPGKGLEWVAFIWYDGSNKYYADSVRGRFTISRDNFKKMVYLQMNSLRAEDTAVYYCARDLAGIYAFDVWGQGTVVTVSS
VL: EIVMTQSPATLSVSPGERATLSCRASQSVSSNLAWYQQKPGQAPRLLIYGASTRATGIPARFSGSGSGTEFTLTVSSLQSEDFAIYYCQQYNNWRPLTFGGGTKVEIK
notes: VH and VL only
B10: mAb 119 (antibody, V domains shown)
VH: EVQLVESGGGLVQPGRSLRLSCAASGFTFDDYTMHWVRQAPGKGLEWVSGISWNSGSIGYADSVKGRFTISRDNAKNSLYLQMNSLRAEDTALYYCSKDSSGYGYYLNYSLDVWGKGTTVTVSS
VL: EIVMTQSPATLSVSPGERATLSCRASQSVSNLAWYQQKPGQAPRLLIYGASTRATGIPARFSGSGSGTEFTLTISSLQSEDFAVYYCQQYNNWPHFGQGTRLQIK
notes: VH and VL only
B11: mAb 42 (antibody, V domains shown)
VH: QAQLVQSGSELKKPGASVKVSCKASGYTFTKHSMNWVRQAPGQGLEWMGWINTNTGNPTYAQGFTGRFVFSLDTSVTTAYLQISSLKAEDTAVYYCAREGDYDFWSGFFNFDYWGQGTLVTVSS
VL: DIQMTQSPSSLSASVGDRVTITCRASQGIRNDLGWYQQKPGKAPKRLIYAASSLQSGVPSRFSGSGSGAEFTLTISSLQPEDFATYYCLQHNSYPRTFGQGTKVEIK
notes: VH and VL only
B12: mAb 53 (antibody, V domains shown)
VH: QVQLVQSGAEVKKPGASVKVSCKASGYTFTSYDINWVRQATGQGLEWMGWMNPKSGKTGYAQKFQGRITMTRNTPISTVYMDLSSLRSEDTAVYYCAREGHYDFWTGYYSFDYWGQGTLVTVSS
VL: DIQMTQSPSSLSASVGDRVTITCRASQGIRNDLGWYQQTPGKAPKRLIYAASSLQSGVPSRFSGSGSGTEFTLTISSLQPEDFATYYCLQHYSYPYTFGQGTKLEIK
notes: VH and VL only
B13: mAb 71 (antibody, V domains shown)
VH: QVQLVQSGAEVRKPGASVKVSCKASGYTFTKYDVNWVRQAPGQGLEWMGWMNSNNGNIGYAQKFQGRVTMTRKTSISTAYMELSSLRSEDTAVYYCAREGHYDFWRGFYNFDYWGQGTLVTVSS
VL: DIQMTQSPSSLSASVGDRVTITCRASQDIKNDLGWYQQKPGKAPKRLIYAASSLQSGVPSRFSGSGSGTEFTLTISSLQPEDFATYYCLQHNFYPITFGQGTRLEIK
notes: VH and VL only
B14: mAb 67 (antibody, V domains shown)
VH: EVQLVESGGDLVQPGRSLRLSCAASGFTFDDCVIHWVRQAPGKGLEWVSGITWNSGRIGYADSVKGRFTISRDNAKNSLYLQMNSLRVEDTALYYCAKEGNYDFWSTYYRGYFDLWGRGTLVTVSS
VL: DIQMTQSPSSLSASVGDRVTITCRASQGIRNDLGWYQQKPGIAPKRLIYAASSLQGGVPLRFSGSGSGTEFTLTISSLQPEDFATYYCLQHNSYPYTFGQGTKLEIK
notes: VH and VL only
B15: mAb 55 (antibody, V domains shown)
VH: QVQLEQSGAEVKKPGASVKVSCKTSGYIFANYDINWVRQATGQGLEWMGWMNPKSGKAGYAQKFQGRVTMTSNTPINTAYMELSSLRSEDTAVYYCAREGHYDFWRGFYSFDYWGQGILVTVSS
VL: DIQMTQSPSSLSASVGDRVTITCRASQGIRNDLGWYQQKPGKAPKRLIYTASSLQSGVPSRFSGSGSGTEFTLTISSLQPEDFATYFCLQYNTYPYTFGQGTKLEIK
notes: VH and VL only
B16: mAb 50 (antibody, V domains shown)
VH: QAQLVQSGSELKKPGASVKVSCKASGYTFTRHAMNWVRQAPGQGLEWMGWINTNTGNPTYAQGFTGRFVFSLDTSVTTAYLQISSLKAEDTAVYYCAREGDYDFWSGFFNFDYWGQGTLVTVSS
VL: DIQMTQSPSSLSASVGDRVTITCRASQGIRNDLGWFQQKPGKAPTRLIYAASSLQSGVPSRFSGSGSGAEFTLTISSLQPEDFATYYCLQHNSYPRTFGQGTKVEIK
notes: VH and VL only
B17: mAb 43 (antibody, V domains shown)
VH: QAQLVQSGSELKKPGASVKVSCKASGYTFTKHSMNWVRQAPGQGLEWMGWINTNTGNPMYAQGFTGRFVFSLDTSVTTAYLQISSLKAEDTAVYYCAREGDYDFWSGFFNFDYWGQGTLVTVSS
VL: DIQMTQSPSSLSASVGDRVTITCRASQGIRNDLGWYQQKPGKAPKRLIYAASSLQSGVPSRFSGSGSGAEFTLTISSLQPEDFATYYCLQHNSYPRTFGQGTKVEIK
notes: VH and VL only
B18: mAb 44 (antibody, V domains shown)
VH: QAQLVQSGSELKKPGASVKVSCKASGYTFTRHAMNWVRQAPGQGLEWMGWINTNTGNPTYAQGFTGRFVFSLDTSVSTAYLKISSLKAEDTAVYYCVREGDYDFWSGFFNFDYWGQGTLVTVSS
VL: DIQMTQSPSSLSASVGDRVTITCRASQGIRNDLGWFQQKPGKAPTRLIYAASSLQSGVPSRFSGSGSGAEFTLTISSLQPEDFATYYCLQHNSYPRTFGQGTKVEIK
notes: VH and VL only
B19: mAb 47 (antibody, V domains shown)
VH: QAQLVQSGSELKKPGASVKVSCKASGYTFTKHSMNWVRQAPGQGLEWMGWINTNTGNPTYAQGFTGRFVFSLDTSVTTAYLQISSLKAEDTAVYYCAREGDYDFWSGFFNFDYWGQGTLVTVSS
VL: DIQMTQSPSSLSASVGDRVTITCRASQGIRNDLGWYQQKPGKAPKRLIYAASSLQSGVPSRFSGSGSGTEFTLTISSLQPEDFATYYCLQHNSYPRTFGQGTKVEIK
notes: VH and VL only

biological target: T1, human CD3e/d (human, UniProt P07766 23-126; P04234 22-105); experiment: SPR (Carterra LSA), mAb on chip
T1 construct: Bought soluble protein; also called hCD3e/d; human CD3/ed (Sino CT038-H2508H)
T1 sequence (P07766 23-126, chain 1 of 2): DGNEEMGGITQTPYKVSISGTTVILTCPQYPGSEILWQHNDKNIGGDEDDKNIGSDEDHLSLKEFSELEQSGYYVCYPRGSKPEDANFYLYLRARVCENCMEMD
T1 sequence (P04234 22-105, chain 2 of 2): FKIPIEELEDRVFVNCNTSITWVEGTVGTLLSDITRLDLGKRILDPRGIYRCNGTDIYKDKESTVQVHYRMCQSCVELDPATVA
Method: (§1) High-throughput surface plasmon resonance (SPR) coupled kinetic experiments were performed on a Carterra LSA® instrument equipped with an HC-30M chip type (Carterra, USA). The instrument uses two microfluidic modules, a single-flow cell (SFC) and a 96 printhead, to deliver samples to the chip surface via back-and-forth cycling of a fixed sample volume. An up to 384-ligand array is generated by docking the MFC onto each of the four nested print block locations in a serial manner.
(§2) The purified mAbs were immobilized on a Carterra LSA® HC-30M chip by direct coupling. The chip surface was first activated by flowing a freshly prepared 1:1:1 activation mix of 100 mM MES pH 5.5, 100 mM S-NHS, 400 mM EDC for 7 min. mAbs diluted to 10 μg/mL in 10 mM NaOAc pH 4.25+0.01% TWEEN®20 were then injected and printed onto the chip surface simultaneously using the MFC printhead for 10 min. Finally, the chip surface was quenched by flowing 1 M ethanolamine for 7 min (to block the excess reactive esters), followed by 2 wash steps of 15 s each in 25 mM MES pH 5.5. In addition to expressed and purified mAbs, relevant benchmarks and negative control mAbs were also printed on the chip surface.
(§3) The data were analyzed using the Carterra Kinetics analysis software. Briefly, the data were referenced with the interstitial reference spots and double-referenced to a buffer cycle, and then fit globally to a 1:1 Langmuir binding model to determine their apparent association (ka) and dissociation (kd) kinetic rate constants and binding affinity constants (KD).

In order of falling Kd:
1. B8  3200 nM
2. B7  580 nM
3. B6  286 nM
4. B2  250 nM
5. B5  120 nM
6. B1  110 nM
7. B3  84 nM
8. B4  70 nM
9. B10  37.2 nM
10. B9  21.7 nM

biological target: T2, human CD3e/g (human, UniProt P07766 23-126; P09693 23-116); experiment: SPR (Carterra LSA), mAb on chip
T2 construct: Bought soluble protein; also called hCD3e/g; human CD3e/g (Acro CDD-C52W4)
T2 sequence (P07766 23-126, chain 1 of 2): as the sequence (P07766 23-126, chain 1 of 2) above
T2 sequence (P09693 23-116, chain 2 of 2): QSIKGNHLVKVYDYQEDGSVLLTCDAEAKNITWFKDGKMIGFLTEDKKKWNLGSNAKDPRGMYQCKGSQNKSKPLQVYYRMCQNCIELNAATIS
Method: as §1, §2, §3

In order of falling Kd:
1. B12  258 nM
2. B13  113 nM
3. B15  85.7 nM
4. B16  34.3 nM
5. B17  21.7 nM
6. B19  20.1 nM
7. B11  19.4 nM
8. B18  19.1 nM
9. B14  18.6 nM
